Tests used:
[1] = target: T1, recombinant cyno BCMA, in house material (cyno, UniProt A0A2K5UD97 4-52); experiment: Biacore T100, antibody captured on Protein A, 37C
T1 construct: also called Cyno in house BCMA

[2] = target: T2, recombinant human BCMA, commercial (US Biological, B0410) (human, UniProt Q02223 5-54, limits assumed); experiment: Biacore T100, antibody captured on Protein A, 37C
T2 construct: also called commercial human BCMA; Human commercial BCMA
T2 chain (looked up): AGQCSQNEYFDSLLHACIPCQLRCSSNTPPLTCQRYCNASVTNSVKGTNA

[3] = target: T3, recombinant human BCMA Fc 4-53 (human); experiment: competition ELISA: binding of recombinant human APRIL to coated recombinant human BCMA Fc 4-53, biotinylated anti-APRIL and streptavidin-HRP, % of control
T3 construct: also called Human BCMA CD33-hBCMA ECD (4-53) TEV-Fc; recombinant BCMA
Experimental: (§1) 96 well flat bottomed plates were coated overnight with 1 μg/mL solution of recombinant human BCMA Fc 4-53 in PBS. Following a wash step using 0.05% TWEEN20, plates were blocked with 2% Bovine Serum Albumin solution in PBS for 1 hour at room temperature. […] 40 μL of 2% BSA was added to the relevant control wells. […] Equivalent volume of 2% BSA was added to the relevant control wells. Plates were allowed to incubate for 2 hours at room temperature, after which they were washed as before. […] Following a wash step, 50 µL of a 1:4000 dilution of Streptavidin-HRP (Amersham RPN4401) was added to each well and incubated for 30 minutes at room temperature. The wash process was repeated again followed by the addition of […] of Tetramethylbenzidine substrate solution (T8665, Sigma) into each well. Plates were incubated for 20-25 minutes at room temperature, wrapped in foil. The reaction was stopped with the addition of […] of 1M H₂SO₄. Optical density was determined at 450 nm using Spectromax reader.

[4] = target: T4, cyno BCMA expressed on HEK293 cells (cyno, UniProt A0A2K5UD97 1-183); experiment: FMAT cell binding on HEK293 cells transfected with cyno BCMA, anti-human IgG FMAT Blue detection
T4 construct: whole, on cells; also called cyno BCMA HEK293
Experimental: Cryopreserved transfected human, cyno BCMA and mock transfected HEK293 cells were recovered from LN2 storage. […] The assay plates were left for a minimum of 90 minutes before the result was read on the ABI8200 (FMAT) plate reader.

[5] = target: T5, human BCMA expressed on cells (human, UniProt Q02223 1-184); experiment: FACS on H929 cells, PE anti-human IgG, MFI
T5 construct: whole, on cells; also called human BCMA HEK293; ARH77-hBCMA 10B5 BCMA expressing transfectant cells
T5 sequence (looked up): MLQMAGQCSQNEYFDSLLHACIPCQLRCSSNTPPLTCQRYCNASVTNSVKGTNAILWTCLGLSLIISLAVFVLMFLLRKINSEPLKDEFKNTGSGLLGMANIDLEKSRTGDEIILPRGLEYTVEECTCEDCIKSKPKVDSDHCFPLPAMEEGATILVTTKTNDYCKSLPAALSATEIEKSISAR
Experimental: Cells were then washed with FACS buffer (PBS+0.5% BSA+0.1% sodium azide) to remove unbound antibody. Cells were incubated with a secondary PE labelled anti-human IgG antibody for 15 minutes at RT and then washed with FACS buffer to remove unbound antibody. Cells were analysed by FACS and mean fluorescence intensity (MFI) values measured to determine binding.

[6] = target: T2, recombinant human BCMA, commercial (US …); experiment: Biacore T100, antibody captured on Protein A, 37C, experiment 1
Experimental: (§2) Protein A was immobilised on a CMS chip (GE Healthcare, Cat No: BR-1005-30) by primary amine coupling and this surface was then used to capture the antibody molecules. Recombinant human BCMA (US Biological, B0410) was used as analyte at 256 nM, 64 nM, 16 nM, 4 nM and 1 nM. Regeneration of the capture surface was carried out using 50 mM NaOH. All binding curves were double referenced with a buffer injection (i.e. 0 nM) the data was fitted to the using the 1:1 model inherent to T100 evaluation software. The run was carried out at 25° C. and 37° C. for experiment 1 and only 37° C. for experiment 2 using HBS-EP as the running buffer.

[7] = target: T1, recombinant cyno BCMA, in house material; experiment: ProteOn SPR run 1, antibody captured on Protein A, 25C
[8] = target: T3, recombinant human BCMA Fc 4-53; experiment: ELISA, neutralisation of ligand binding to plate-coated BCMA Fc 4-53; competitor BAFF; competitor BAFF
Experimental: as §1

[9] = target: T1, recombinant cyno BCMA, in house material; experiment: ProteOn SPR run 2, antibody captured on Protein A, 25C
[10] = target: T2, recombinant human BCMA, commercial (US …); experiment: as above
[11] = target: T3, recombinant human BCMA Fc 4-53; experiment: competition ELISA: binding of recombinant human BAFF to coated recombinant human BCMA Fc 4-53, biotinylated anti-BAFF and streptavidin-HRP, % of control
Experimental: as §1

[12] = target: T2, recombinant human BCMA, commercial (US …); experiment: Biacore T100, antibody captured on Protein A, 37C, experiment 2
Experimental: as §2

[13] = target: T6, recombinant human BCMA, in house material (human, UniProt Q02223 4-53, limits assumed); experiment: ProteOn SPR run 2, antibody captured on Protein A, 25C; Run 2 (Table 9)
T6 construct: also called Human in house BCMA; In house human BCMA
Experimental: The initial screen of CA8 chimeric and humanised variants was carried out on the ProteOn XPR36 (Biorad). The method was as follows; Protein A was immobilised on a GLC chip (Biorad, Cat No: 176-5011) by primary amine coupling, CA8 variants were then captured on this surface and recombinant human BCMA (in house or commercial US Biological, B0410) materials (run 2 only)) passed over at 256, 64, 16, 4, 1 nM with a 0 nM injection (i.e. buffer alone) used to double reference the binding curves, the buffer used is the HBS-EP buffer. 50 mM NaOH was used to regenerate the capture surface. The data was fitted to the 1:1 model using the analysis software inherent to the ProteOn XPR36. […] Both runs were carried out at 25° C.

B1: CA8 chimera antibody (human chimeric CA8) (antibody, V domains shown)
VH: EVQLQQSGAVLARPGASVKMSCKGSGYTFTNYWMHWVKQRPGQGLEWIGATYRGHSDTYYNQKFKGKAKLTAVTSTSTAYMELSSLTNEDSAVYYCTRGAIYNGYDVLDNWGQGTLVTVSS
VL: DIQLTQTTSSLSASLGDRVTISCSASQDISNYLNWYQQKPDGTVELVIYYTSNLHSGVPSRFSGSGSGTDYSLTIGYLEPEDVATYYCQQYRKLPWTFGGGSKLEIKR
notes: also called Chimera CA8; CA8 chimeric antibody
For B1, the Kd [1] was 0.305 nM, the Kd [2] was 0.036 nM and the “IC50 (read off the curve)” value [3] was roughly 0.8 mg/L. For the same binder, the “EC50 (read off the curve)” value [4] was roughly 0.3 mg/L, the “EC50 (read off the curve)” value [5] was roughly 0.3 mg/L and the Kd [6] was 0.051 nM. It also gave a Kd [7] of 0.457 nM, an EC50 [8] of 0.695 mg/L and a Kd [9] of 2.06 nM. For the same binder, the Kd [10] was 0.139 nM, the “IC50 (read off the curve)” value [11] was roughly 0.7 mg/L and the Kd [12] was 0.055 nM. It also gave a Kd [13] of 0.412 nM.
